Assay results published in publication doi:10.1101/2020.06.28.176677 (bioRxiv, 2020).

B1: glutaryl-CoA dehydrogenase (GCDH), mouse liver mitochondria (enzyme, mouse (endogenous in liver mitochondria), UniProt Q60759 45-438, looked up)
chain: RPVFDWKDPLILEEQLTADEKLIRDTFRNYCQERLMSRILLANRNEVFHRDIVYEMGELGVLGPTIKGYGCAGVSSVAYGLLTRELERVDSGYRSMMSVQSSLVMHPIYTYGSEEQRQKYLPGLAKGELLGCFGLTEPNHGSDPGGMETRARHNPSNQSYTLSGTKTWITNSPVADLFIVWARCEDNCIRGFILEKGMRGLSAPRIEGKFSLRASATGMIIMDSVEVPEENVLPNVSSLAGPFGCLNTARYGITWGVLGAAEFCLHTARQYALDRIQFGVPLARNQLVQKKLADMLTEITLGLHACLQLGRLKDQDKATPEMVSMLKRNNCGKALDIARQARDILGGNGISDEYHVIRHAMNLEAVNTYEGTHDIHALILGRAITGIQAFTVGK
B2: recombinant human GCDH, unmodified (hGCDH-6xHIS) (enzyme, UniProt Q92947 45-438, looked up)
chain: RPEFDWQDPLVLEEQLTTDEILIRDTFRTYCQERLMPRILLANRNEVFHREIISEMGELGVLGPTIKGYGCAGVSSVAYGLLARELERVDSGYRSAMSVQSSLVMHPIYAYGSEEQRQKYLPQLAKGELLGCFGLTEPNSGSDPSSMETRAHYNSSNKSYTLNGTKTWITNSPMADLFVVWARCEDGCIRGFLLEKGMRGLSAPRIQGKFSLRASATGMIIMDGVEVPEENVLPGASSLGGPFGCLNNARYGIAWGVLGASEFCLHTARQYALDRMQFGVPLARNQLIQKKLADMLTEITLGLHACLQLGRLKDQDKAAPEMVSLLKRNNCGKALDIARQARDMLGGNGISDEYHVIRHAMNLEAVNTYEGTHDIHALILGRAITGIQAFTASK
B3: chemically succinylated recombinant human GCDH (succinyl-GCDH) (enzyme, UniProt Q92947 45-438, looked up)
chain: RPEFDWQDPLVLEEQLTTDEILIRDTFRTYCQERLMPRILLANRNEVFHREIISEMGELGVLGPTIKGYGCAGVSSVAYGLLARELERVDSGYRSAMSVQSSLVMHPIYAYGSEEQRQKYLPQLAKGELLGCFGLTEPNSGSDPSSMETRAHYNSSNKSYTLNGTKTWITNSPMADLFVVWARCEDGCIRGFLLEKGMRGLSAPRIQGKFSLRASATGMIIMDGVEVPEENVLPGASSLGGPFGCLNNARYGIAWGVLGASEFCLHTARQYALDRMQFGVPLARNQLIQKKLADMLTEITLGLHACLQLGRLKDQDKAAPEMVSLLKRNNCGKALDIARQARDMLGGNGISDEYHVIRHAMNLEAVNTYEGTHDIHALILGRAITGIQAFTASK
modifications: succinyl-lysine, 11 sites found by LC-MS/MS (sites shown in Supporting Figure 2G, not given)

Experiments:
native gel or EMSA = biological target: the molecule itself; assay: native gel or EMSA
SEC = biological target: the molecule itself; assay: SEC

Row | Protein | stoichiometry N (native gel or EMSA) | stoichiometry N (SEC)
1 | B1 | 4 | –
2 | B2 | – | 4
3 | B3 | – | 4
